This assay addresses CK2β^1–193-DBCO-Sulfo-Cy5 (human) (UniProt P67870). As to the kind of experiment: other fluorescence titration; quenching of the fluorescence of 30 nM CK2β^1–193-DBCO-Sulfo-Cy5 by 0.3 nM to 5 µM CK2α variant; Monolith NT.115, mode initial fluorescence; 25°C; 500 mM NaCl, 25 mM TRIS/HCl, pH 8.5, 0.05% Tween 20.

From PMC9014129 come the findings set out here.

Regarding “human CK2α (from UniProt P68400 1-391) (enzyme)”, the Kd (commonly the concentration at which binding is half-saturated) amounted to 13.6 nM.

B1: human CK2α^Lys198Arg (enzyme)
chain: MSGPVPSRARVYTDVNTHRPREYWDYESHVVEWGNQDDYQLVRKLGRGKYSEVFEAINITNNEKVVVKILKPVKKKKIKREIKILENLRGGPNIITLADIVKDPVSRTPALVFEHVNNTDFKQLYQTLTDYDIRFYMYEILKALDYCHSMGIMHRDVKPHNVMIDHEHRKLRLIDWGLAEFYHPGQEYNVRVASRYFRGPELLVDYQMYDYSLDMWSLGCMLASMIFRKEPFFHGHDNYDQLVRIAKVLGTEDLYDYIDKYNIELDPRFNDILGRHSRKRWERFVHSENQHLVSPEALDFLDKLLRYDHQSRLTAREAMEHPYFYTVVKDQARMGSSSMPGGSTPVSSANMMSGISSVPTPSPLGPLAGSPVIAAANPLGMPVPAAAGAQQ
Molecule B1 registered a Kd of 6.2 nM.
